Experimental data taken from US20180169257A1 (Seagen, published 2018).

T1: human NTB-A (human, UniProt Q96DU3 22-332)
T1 construct: Endogenous NTB-A on antigen-positive Ramos cells (also on MM.1R, WIL2-S and Raji cells and normal human T and B lymphocytes); also called SLAMF6; human NTB-A isoform-1
T1 sequence: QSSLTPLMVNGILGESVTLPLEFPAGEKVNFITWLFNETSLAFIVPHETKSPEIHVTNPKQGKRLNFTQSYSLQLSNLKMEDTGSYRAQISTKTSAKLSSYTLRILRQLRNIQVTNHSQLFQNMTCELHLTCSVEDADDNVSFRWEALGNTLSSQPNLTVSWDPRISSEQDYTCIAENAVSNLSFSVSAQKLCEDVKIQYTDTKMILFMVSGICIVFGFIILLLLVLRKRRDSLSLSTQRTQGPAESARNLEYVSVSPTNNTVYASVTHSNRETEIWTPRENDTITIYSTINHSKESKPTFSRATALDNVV


Molecular target: T1, human NTB-A
Test: competition flow cytometry on Ramos cells; competitor 5 nM mouse 20F3-Alexa Fluor 647
Experimental: Antigen positive Ramos cells were plated at 1×10⁵ cells per well in a 96 well V-bottom plate (Thermo Scientific, Rochester, N.Y.). Fifty-fold serial dilutions of antibodies were prepared in FACs buffer (PBS+2% fetal bovine serum) and were added to the cells in duplicate. The antibody solutions were incubated with cells for 1 hour on ice, protected from light. The cells were washed twice with FACs buffer and analyzed on the LSRII flow cytometer (BD BioSciences, San Jose, Calif.). EC50 values were determined with GraphPad Prism software (La Jolla, Calif.).

Binder | EC50 [nM]
humanized 20F3 HCLB (antibody, V domains shown, Humanized heavy chain HC paired with humanized light chain LB) VH: QIQLVQSGSELKKPGASVKVSCKASGYTFTNYGMNWVRQAPGQDLEWMGWINTYSGEPRYADDFKGRFVFSLDKSVNTAYLQISSLKAEDTAVYYCARDYGRWYFDVWGQGTTVTVSS VL: EIVLTQSPATLSLSPGERATLSCRASSSVSHMHWYQQKPGQAPRPWIYATSNLASGIPARFSGSGSGTDYTLTISSLEPEDFAVYYCQQWSSTPRTFGGGTKVEIKR | 5
humanized 20F3 HBLC (antibody, V domains shown, Humanized heavy chain HB paired with humanized light chain LC) VH: QIQLVQSGSELKKPGASVKVSCKASGYTFTNYGMNWVRQAPGQGLEWMGWINTYSGEPRYADDFKGRFVFSLDKSVSTAYLQISSLKAEDTAVYYCARDYGRWYFDVWGQGTTVTVSS VL: QIVLSQSPATLSLSPGERATLSCRASSSVSHMHWYQQKPGQAPRPWIYATSNLASGIPARFSGSGSGTDYTLTISSLEPEDFAVYYCQQWSSTPRTFGGGTKVEIKR | 12
humanized 20F3 HALD (antibody, V domains shown, Humanized heavy chain HA paired with humanized light chain LD) VH: QVQLVQSGSELKKPGASVKVSCKASGYTFTNYGMNWVRQAPGQGLEWMGWINTYSGEPRYADDFKGRFVFSLDTSVSTAYLQISSLKAEDTAVYYCARDYGRWYFDVWGQGTTVTVSS VL: QIVLSQSPATLSLSPGERATMSCRASSSVSHMHWYQQKPGQAPRPWIYATSNLASGVPARFSGSGSGTDYTLTISSLEPEDFAVYYCQQWSSTPRTFGGGTKVEIKR | 12
humanized 20F3 HBLD (antibody, V domains shown, Humanized heavy chain HB paired with humanized light chain LD) VH: QIQLVQSGSELKKPGASVKVSCKASGYTFTNYGMNWVRQAPGQGLEWMGWINTYSGEPRYADDFKGRFVFSLDKSVSTAYLQISSLKAEDTAVYYCARDYGRWYFDVWGQGTTVTVSS VL: QIVLSQSPATLSLSPGERATMSCRASSSVSHMHWYQQKPGQAPRPWIYATSNLASGVPARFSGSGSGTDYTLTISSLEPEDFAVYYCQQWSSTPRTFGGGTKVEIKR | 4
humanized 20F3 HBLB (antibody, V domains shown, Humanized heavy chain HB paired with humanized light chain LB) VH: QIQLVQSGSELKKPGASVKVSCKASGYTFTNYGMNWVRQAPGQGLEWMGWINTYSGEPRYADDFKGRFVFSLDKSVSTAYLQISSLKAEDTAVYYCARDYGRWYFDVWGQGTTVTVSS VL: EIVLTQSPATLSLSPGERATLSCRASSSVSHMHWYQQKPGQAPRPWIYATSNLASGIPARFSGSGSGTDYTLTISSLEPEDFAVYYCQQWSSTPRTFGGGTKVEIKR | 6
humanized 20F3 HALC (antibody, V domains shown, Humanized heavy chain HA paired with humanized light chain LC) VH: QVQLVQSGSELKKPGASVKVSCKASGYTFTNYGMNWVRQAPGQGLEWMGWINTYSGEPRYADDFKGRFVFSLDTSVSTAYLQISSLKAEDTAVYYCARDYGRWYFDVWGQGTTVTVSS VL: QIVLSQSPATLSLSPGERATLSCRASSSVSHMHWYQQKPGQAPRPWIYATSNLASGIPARFSGSGSGTDYTLTISSLEPEDFAVYYCQQWSSTPRTFGGGTKVEIKR | 27
humanized 20F3 HCLD (antibody, V domains shown, Humanized heavy chain HC paired with humanized light chain LD) VH: QIQLVQSGSELKKPGASVKVSCKASGYTFTNYGMNWVRQAPGQDLEWMGWINTYSGEPRYADDFKGRFVFSLDKSVNTAYLQISSLKAEDTAVYYCARDYGRWYFDVWGQGTTVTVSS VL: QIVLSQSPATLSLSPGERATMSCRASSSVSHMHWYQQKPGQAPRPWIYATSNLASGVPARFSGSGSGTDYTLTISSLEPEDFAVYYCQQWSSTPRTFGGGTKVEIKR | 5
humanized 20F3 HCLA (antibody, V domains shown, Humanized heavy chain HC paired with humanized light chain LA) VH: QIQLVQSGSELKKPGASVKVSCKASGYTFTNYGMNWVRQAPGQDLEWMGWINTYSGEPRYADDFKGRFVFSLDKSVNTAYLQISSLKAEDTAVYYCARDYGRWYFDVWGQGTTVTVSS VL: EIVLTQSPATLSLSPGERATLSCRASSSVSHMHWYQQKPGQAPRLLIYATSNLASGIPARFSGSGSGTDFTLTISSLEPEDFAVYYCQQWSSTPRTFGGGTKVEIKR | 25
humanized 20F3 HELB (antibody, V domains shown, Humanized heavy chain HE paired with humanized light chain LB) VH: QIQLVQSGSELKKPGASVKVSCKASGYTFTNYGMNWVKQAPGQDLKWMGWINTYSGEPRYADDFKGRFAFSLDKSVNTAYLQISSLKAEDTAVYFCARDYGRWYFDVWGQGTTVTVSS VL: EIVLTQSPATLSLSPGERATLSCRASSSVSHMHWYQQKPGQAPRPWIYATSNLASGIPARFSGSGSGTDYTLTISSLEPEDFAVYYCQQWSSTPRTFGGGTKVEIKR | 4
humanized 20F3 HELC (antibody, V domains shown, Humanized heavy chain HE paired with humanized light chain LC) VH: QIQLVQSGSELKKPGASVKVSCKASGYTFTNYGMNWVKQAPGQDLKWMGWINTYSGEPRYADDFKGRFAFSLDKSVNTAYLQISSLKAEDTAVYFCARDYGRWYFDVWGQGTTVTVSS VL: QIVLSQSPATLSLSPGERATLSCRASSSVSHMHWYQQKPGQAPRPWIYATSNLASGIPARFSGSGSGTDYTLTISSLEPEDFAVYYCQQWSSTPRTFGGGTKVEIKR | 10
humanized 20F3 HELA (antibody, V domains shown, Humanized heavy chain HE paired with humanized light chain LA) VH: QIQLVQSGSELKKPGASVKVSCKASGYTFTNYGMNWVKQAPGQDLKWMGWINTYSGEPRYADDFKGRFAFSLDKSVNTAYLQISSLKAEDTAVYFCARDYGRWYFDVWGQGTTVTVSS VL: EIVLTQSPATLSLSPGERATLSCRASSSVSHMHWYQQKPGQAPRLLIYATSNLASGIPARFSGSGSGTDFTLTISSLEPEDFAVYYCQQWSSTPRTFGGGTKVEIKR | 31
humanized 20F3 HELD (antibody, V domains shown, Humanized heavy chain HE paired with humanized light chain LD) VH: QIQLVQSGSELKKPGASVKVSCKASGYTFTNYGMNWVKQAPGQDLKWMGWINTYSGEPRYADDFKGRFAFSLDKSVNTAYLQISSLKAEDTAVYFCARDYGRWYFDVWGQGTTVTVSS VL: QIVLSQSPATLSLSPGERATMSCRASSSVSHMHWYQQKPGQAPRPWIYATSNLASGVPARFSGSGSGTDYTLTISSLEPEDFAVYYCQQWSSTPRTFGGGTKVEIKR | 2
humanized 20F3 HALB (antibody, V domains shown, Humanized heavy chain HA paired with humanized light chain LB) VH: QVQLVQSGSELKKPGASVKVSCKASGYTFTNYGMNWVRQAPGQGLEWMGWINTYSGEPRYADDFKGRFVFSLDTSVSTAYLQISSLKAEDTAVYYCARDYGRWYFDVWGQGTTVTVSS VL: EIVLTQSPATLSLSPGERATLSCRASSSVSHMHWYQQKPGQAPRPWIYATSNLASGIPARFSGSGSGTDYTLTISSLEPEDFAVYYCQQWSSTPRTFGGGTKVEIKR | 12
humanized 20F3 HDLA (antibody, V domains shown, Humanized heavy chain HD paired with humanized light chain LA) VH: QIQLVQSGSELKKPGASVKVSCKASGYTFTNYGMNWVRQAPGQDLKWMGWINTYSGEPRYADDFKGRFVFSLDKSVNTAYLQISSLKAEDTAVYYCARDYGRWYFDVWGQGTTVTVSS VL: EIVLTQSPATLSLSPGERATLSCRASSSVSHMHWYQQKPGQAPRLLIYATSNLASGIPARFSGSGSGTDFTLTISSLEPEDFAVYYCQQWSSTPRTFGGGTKVEIKR | 15
humanized 20F3 HBLA (antibody, V domains shown, Humanized heavy chain HB paired with humanized light chain LA) VH: QIQLVQSGSELKKPGASVKVSCKASGYTFTNYGMNWVRQAPGQGLEWMGWINTYSGEPRYADDFKGRFVFSLDKSVSTAYLQISSLKAEDTAVYYCARDYGRWYFDVWGQGTTVTVSS VL: EIVLTQSPATLSLSPGERATLSCRASSSVSHMHWYQQKPGQAPRLLIYATSNLASGIPARFSGSGSGTDFTLTISSLEPEDFAVYYCQQWSSTPRTFGGGTKVEIKR | 71
humanized 20F3 HCLC (antibody, V domains shown, Humanized heavy chain HC paired with humanized light chain LC) VH: QIQLVQSGSELKKPGASVKVSCKASGYTFTNYGMNWVRQAPGQDLEWMGWINTYSGEPRYADDFKGRFVFSLDKSVNTAYLQISSLKAEDTAVYYCARDYGRWYFDVWGQGTTVTVSS VL: QIVLSQSPATLSLSPGERATLSCRASSSVSHMHWYQQKPGQAPRPWIYATSNLASGIPARFSGSGSGTDYTLTISSLEPEDFAVYYCQQWSSTPRTFGGGTKVEIKR | 8
humanized 20F3 HDLC (antibody, V domains shown, Humanized heavy chain HD paired with humanized light chain LC) VH: QIQLVQSGSELKKPGASVKVSCKASGYTFTNYGMNWVRQAPGQDLKWMGWINTYSGEPRYADDFKGRFVFSLDKSVNTAYLQISSLKAEDTAVYYCARDYGRWYFDVWGQGTTVTVSS VL: QIVLSQSPATLSLSPGERATLSCRASSSVSHMHWYQQKPGQAPRPWIYATSNLASGIPARFSGSGSGTDYTLTISSLEPEDFAVYYCQQWSSTPRTFGGGTKVEIKR | 6
humanized 20F3 HALA (antibody, V domains shown, Humanized heavy chain HA paired with humanized light chain LA) VH: QVQLVQSGSELKKPGASVKVSCKASGYTFTNYGMNWVRQAPGQGLEWMGWINTYSGEPRYADDFKGRFVFSLDTSVSTAYLQISSLKAEDTAVYYCARDYGRWYFDVWGQGTTVTVSS VL: EIVLTQSPATLSLSPGERATLSCRASSSVSHMHWYQQKPGQAPRLLIYATSNLASGIPARFSGSGSGTDFTLTISSLEPEDFAVYYCQQWSSTPRTFGGGTKVEIKR | 147
humanized 20F3 HDLB (antibody, V domains shown, Humanized heavy chain HD paired with humanized light chain LB) VH: QIQLVQSGSELKKPGASVKVSCKASGYTFTNYGMNWVRQAPGQDLKWMGWINTYSGEPRYADDFKGRFVFSLDKSVNTAYLQISSLKAEDTAVYYCARDYGRWYFDVWGQGTTVTVSS VL: EIVLTQSPATLSLSPGERATLSCRASSSVSHMHWYQQKPGQAPRPWIYATSNLASGIPARFSGSGSGTDYTLTISSLEPEDFAVYYCQQWSSTPRTFGGGTKVEIKR | 3
murine 20F3 antibody (antibody, mouse IgG1, V domains shown, also called mouse 20F3) VH: QIQLVQSGPELKKPGETVKISCKASGYTFTNYGMNWVKQAPGKDLKWMGWINTYSGEPRYADDFKGRFAFSLEKSANTAYLQINNLKNEDMATYFCARDYGRWYFDVWGTGTTVTVSS VL: QIVLSQSPAILSASPGEKVTMTCRASSSVSHMHWYQQKPGSSPKPWIYATSNLASGVPARFSGSGSGTSYSLTISRVEAEDAATYYCQQWSSTPRTFGGGTKLEIKR | 2
